# B1: crRNA (37 nt) / target ssRNA (18 nt as modelled) (structured_RNA)
# RNA 1: GGACUUAAUGUCACGGUACCCAAUUUUCUGCCCCGGA
# RNA 2: UCCGGGGCAGAAAAUUGG
# Molecular target: Sb-gRAMP (type III-E CRISPR effector, Cas7-11);TPR-CHAT (caspase-like peptidase) (Candidatus "Scalindua …, UniProt A0A0B0EGF3;A0A0B0EKL4 1-1717;1-716, |)
# Test: cryo-EM structure
binder,measurement,value
B1,binding result,binds

# From doi:10.1101/2022.09.07.506877
